{"source": "patent US11357817B2", "about": "“Immunoproteasome inhibitor” (The Regents of the University of California, priority 2017, dated 2022)", "key": {"[1]": {"target": "z-LRR-AMC"}, "[2]": {"target": "Succinyl-Leu-Leu-Val-Tyr-aminocoumarin (Artificial Sequence)"}, "[3]": {"target": "z-LLE-AMC"}, "[4]": {"target": "β5 subunit of the S. cerevisiae 20S proteasome (PRE2), wild type (Saccharomyces cerevisiae)"}, "[5]": {"target": "β5 subunit of the S. cerevisiae 20S proteasome (PRE2) with M45I (M120I in the pro-protein), lineage 2 (Saccharomyces cerevisiae)"}, "[6]": {"target": "20S Plasmodium proteasome (Pf20S), enriched from P. falciparum schizont lysate (Plasmodium falciparum)", "experiment": "inactivation kinetics of Pf20S, Suc-LLVY-AMC activity assay, non-linear regression of Kobs"}, "[7]": {"target": "20S Plasmodium proteasome (Pf20S), enriched from P. falciparum schizont lysate (Plasmodium falciparum)"}, "[8]": {"target": "human constitutive 20S proteasome (human)"}, "[9]": {"target": "20S Plasmodium proteasome (Pf20S), enriched from P. falciparum schizont lysate (Plasmodium falciparum)", "remark": "listed apart in the source"}, "[10]": {"target": "human constitutive 20S proteasome (human)", "remark": "listed apart in the source"}, "[11]": {"target": "human constitutive 20S proteasome (human)", "experiment": "inactivation kinetics of c20S, Suc-LLVY-AMC activity assay, non-linear regression of Kobs"}}}
{"substance": "20S Plasmodium proteasome (Pf20S), enriched from P. falciparum schizont lysate (enzyme)", "values": [{"measurement": "hydrolysis of z-LRR-AMC (AMC release) (fold of the c20S rate)", "setting": "[1]", "value": "< 2"}, {"measurement": "hydrolysis of suc-LLVY-AMC (AMC release) (fold of the c20S rate)", "setting": "[2]", "value": "< 2"}, {"measurement": "hydrolysis of z-LLE-AMC (AMC release) (fold lower than c20S)", "setting": "[3]", "value": 19}]}
{"substance": "Carmaphycin B (peptide)", "values": [{"measurement": "average IC50 (uM) of yeast growth, parental GM strain", "setting": "[4]", "value": 24.3, "unit": "µM"}, {"measurement": "average IC50 (uM) of yeast growth, resistant lineage 2", "setting": "[5]", "value": 52.7, "unit": "µM"}, {"measurement": "Ki", "setting": "[6]", "value": 0.223, "unit": "µM"}, {"measurement": "Kinact", "setting": "[7]", "value": 0.000192, "unit": "s⁻¹"}, {"measurement": "Kinact/KI", "setting": "[7]", "value": 864, "unit": "M⁻¹ s⁻¹"}, {"measurement": "Kinact", "setting": "[8]", "value": 0.00168, "unit": "s⁻¹"}, {"measurement": "Kinact/KI", "setting": "[8]", "value": 4480, "unit": "M⁻¹ s⁻¹"}, {"measurement": "inhibition of β5, β1 and β2 activity at 150 nM inhibitor (% reduction of β5 activity)", "setting": "[9]", "value": 45}, {"measurement": "inhibition of β5, β1 and β2 activity at 150 nM inhibitor (% inhibition of β5 activity)", "setting": "[10]", "value": 98}, {"measurement": "Ki", "setting": "[11]", "value": 0.375, "unit": "µM"}]}
